In paper PMC12299999:

Biological target: HA-Foldon (HA1-521 fused at the C-terminus to the bacteriophage T4 fibritin trimerization motif) (influenza A or B virus (strain not stated for this experiment) | bacteriophage T4)
Assay: native gel or EMSA

Substance “HA-Foldon (HA1-521 fused at the C-terminus to the bacteriophage T4 fibritin trimerization motif)” has a stoichiometry N of 3.
